Drawing on a protein production outcome set (Wang et al. 2014), this text covers protein production for 22 sequences.

The data set can be described thus: label from the status in PepcDB records.
With “MDLPVMPPVKPMLAKSVAKIPPDMQYEAKWDGFRAIVFRDGTEVELGSRTGKPLTRYFPELVEALRDRLPERCVIDGEIVIARDGRLDFDALTERIHPAESRVRMLAEKTPASFVAFDLLALADDSLLDTPLTERRALLESALSGVTAPVHVAPATTDREVAEQWFEQYEGAGLDGVIAKPLTLRYRQDERAMFKVKHERTADVVVAGYRLHKSGPVVGSLLLGLYDDRGALQHVGVSAAFPMKRRAELVEELEPLRMEDAAGHPWAAWSNEAAHETARLPGAPSRWSGKKDLSWVPLRPERVAEVAYDHMENGARFRHTARFRRWRPDRTPESCTYAQLEEPVSYDLTEILGSRGLEHHHHHH”, the protein production entry is “not failed”.

“MDLRAIAMGLAFAFMWSSAFSSARIIVADASPLFSLACRFLISGLLGVIIARAMGQTWRLTRNQWKATIVFGICQNALYLGLNFYAMQTVEASVAAIIASTMPLLVALASWGLFGERLPALGIAGLLAGFLGVALIMGARIGAGVDLFGVLLCGLGALALAAATLALRGATSGGNFMMVVGLQMLVGSAVLFLATPIFETVHVTPTLPLALAFAYTTLVPGLTATFVWVLLLNRIGAIRAATFHFLNPVFGVAIAAALLGERLGALDAIGVAITTAGILAVQLSRQASARKP”: the protein production entry is recorded as “failed”.

Turning to “MDLWDRFCVNLHTRKITLEDESQKRSMDLRLLHGVAYGHSWFGKWGYRFCSGSFGVEEHHYHRAIAFLTSISLVDDITANFRENKANLNIGDIVRCYRDMSEIQLTTLQDLLRFMLTIKSRAPPIRIPIGKIEAPSVVLPSMKAYGTRACPQVKQCPKDKEKSVKCRKFALPLPLQACFHFPFRSSMTLLSGSFRS”, the protein production result is reported as “not failed”.

For “MDMDEKDVVETEEESFAELFEKSNSETQRLRPGSKVEGKILKIGAEWVFIDIGKKGEGVMERKELQDAEGNLTVAEGDTITAWFTGSVRNEMRFTTKLGAGAAANAQLEEAHRSGIPVEGFVVKEIKGGFEVRLSGTTRAFCPFSQISLRRAENPAEFVGKHLLFKVTEYSERGRNIVLSHRQILEEEQRVKREALKEVLLEGMTVTGTVTRLADFGAFVDLGGVDGLIPVSEVGWTRVKHVRDVLSVGEQVSVVIKKIDWEAGKISLSLKDTLADPWTTVAEQFPEGSYHTGTVARLAAFGAFVTLAPGIDGLIHISKLGKGKRINHPSDVLKEGETVEVKVDGVDREARRLSLALAEVSRAAEEEEKSVASFRQQATSSSKESMGSFGDLLKAKIEEKRLEHHHHHH”, the protein production result is given as “failed”.

Consider “MDMFGVAVLIFLVTDPFGNIAVFLAALKGVAPGRRLRVAFRELAFALGLLLLFLTLGEHILSGLGLSREATGIAGGIILFVIAMRLIFPSPQGLLGEVPDGEPLLVPLATPAVAGPSALAMLITLRTTFDGPLWELYLAVVLAWAATALILLQAAFLQRFLGPRGLTAIERLAGMLLIMLSVDMLLDNLRSVLHIAA”, for which the protein production entry is “failed”.

“MDMKKYILSLSLLTVINSSAIATTQEGEEAYNKGYYEKAFILLSPEADKGDAKAQYLLGKMYYNAQGVTYNPEKTEQLLLASANQGNVDAQVLLAGFYWYLNTPEGYKKAFEWYQKAADQNNADGQYGLGYMYDTGTGVPQNSDTAMVWYKKAAEQGNSNAALAIGYNYDTGTGVKKDKTQALNWYAKAADLGNASAQYNLGLMYEQGDGVPKDYQKAAEYFEKAANQGHAKSQLELGYLYDSGKLGKSDLQKAAFWYQKSADLGNANAQFNLADMYFYGDGVGKSLEQSVYWMQKAAEQGYGKAQNQLGIYYRDGIGVAADPVKAYAWFTAAKNNGFEKAASNASDLEKSMNPEDLSKARILGQQYTDNYKAKK”: the protein production result is on record as “failed”.

With “MDMKRRIHLELRNRTPAAVRELVLDNCKSNDGKIEGLTAEFVNLEFLSLINVGLISVSNLPKLPKLKKLELSENRIFGGLDMLAEKLPNLTHLNLSGNKLKDISTLEPLKKLECLKSLDLFNCEVTNLNDYRESVFKLLPQLTYLDGYDREDQEAPDSDAEVDGVDEEEEDEEGEDEEDEDDEDGEEEEFDEEDDEDEDVEGDEDDDEVSEEEEEFGLDEEDEDEDEDEEEEEGGKGEKRKRETDDEGEDD”, the protein production entry is reported as “not failed”.

In the case of “MDMKTKLQTIIGMFQITAWDETSYFESDNGAKLTQAVITQSYQGVLQGHSEIRYLMSYQDNANATFVGFEHFTGSLGDKKGSFILQHKGLFAAGVASSEFELVERSATGDFVHLVGKGHFVSTENGQANYQITLQDS”, the protein production result was “not failed”.

Take “MDMTYYDHGTPAERWERARMFFDAKDYAAAARVLDGLVAQVPEQTGPRLLLARSYYHSAQLRRAEAELRVVVERDPVEHYARLMLGRTLERQGRQEEADAQLRIASALAGDFAEL”: the protein production entry was “failed”.

As for “MDMYSMKISEGVERIDGVTANSYLLTLDGKNILIDTGTAGGGKKIIDYFNKNGTKPDYVIVTHHHADHVGGLKEISERFNPEIYVPDLEMKIIRGEEDPPKPRSFFGRMITGMLKFEPVKDVKPVSKASIPGIEEMATPGHTIGSTSYIVEDLHILFSGDAAVESGGELKINKSFSYEINSAERSLEIIKGMKGYLVLPGHGDKVQLLEHHHHHH”, the protein production result was “not failed”.

For the sequence “MDNEEYYKILGVAKSASQDEIKHAYRKMSKKYHPDLNHQPGAEDKYKQVQEAYETLGDPQKRAAYDQYGKAGANANNGQGGFGGFQQSGFNFNGQDFGDFSDIFSQMFGGSFNPNAPRKGRDLQYRINLTFEEAVFGKETEIKYVRQESGGNSKEHTVKVTIPAGVETGQQMRLAGQGEAGTHGGPYGDLYVEFIVGKSKDGFERQGANIYLEEPINFVQAALGDKIKVKTVHGDVELTIPAGTQTDTEFRLRGKGAPYVNSSRIGDEYVKVIVQVPKRLNEKEKKALKTYADLRGENVNPQKRRGLFG”, the protein production entry is reported as “failed”.

Regarding “MDNKVSILNQPKPFKMIFFIELWERFGYYGLQGILAVYFVDKLGFSMQDSFVTFGAFAALVYGLVSVGGYVGDYVLGTKRTMVFGAVVLALGYFLMGFSILNPNFIYLALGAIAVGNGLFKANPSSLLAKCYEKGDSRLDGAFTLYYMSINIGSLVSLSISPVIANNYGYEYAFVICGLGLIASLFSYFSLRSTVQGIGSEPDALPLNKTKALIVLIGTVASTLVCAWLLQNIMMANLALGLIGVGVVGFFLKETFKETGEQRNKMIVAFILMLQAIIFYVLYAQMPTSLNFFAINNVHSELFGIDINPVSLQALNPFWVIFCSPILAYLYTYYGNQNKDLSMPGKFTVGMFMCAFGFLSVAAAGNWFADQAGMVSVWWMILVYLFQSLGELMISGLGLAMVASLVPQRLMGFTMGAWFLTQAASFIIGGYVATFSATPEHLTAPLDTLPVYTELFQNIGFVTLAVAIVMAFTAPKLNKMMTSSQPEDAELVEQP”, the protein production result is listed as “failed”.

Regarding “MDNLFTPSAKSVLVLAQEQAKYFKHQAVGTEHLLLALAIEKNGIANKVLQQYAVSEDDIREEIERFTGYGTLSNVGKDTYLPYSPKAKEILSVAGDEAKRLGANKIGTEHLLLAMLSDESILSSRILMNLNLDLGQTRKVVLRKLG”, the protein production result is given as “failed”.

Regarding “MDNMAIADRRRLRRKLTFWRVAAVLLLVVGAFGLYRFFWQGPQQSAKPHIARIEVSGLITDNTELLERLDKIAKSDNVKGLIVSISSPGGTTYGGERIFKVIRSVAEKKPVVSDVRTLAASAGYMIASAGDVIVAGETSITGSIGVIFQYPQLGQLMEKLGVSLQEIKSSPMKAEPSPFHEAPEEAKTMIRAMVMDSYGWFVDLVADRRKLPREEVLKLADGSIFTGRQALANKLVDTLGGEKEVRAYFETRGVAKDLPIVEWRAPSSNSPFALFSVAQIAKLLGYDDLIPFAGPSQLGADKLFLDGLVSVWQVEPRLEHHHHHH”, the protein production entry is listed as “not failed”.

For “MDNSGKEAEAMALLAEAERKVKNSQSFFSGLFGGSSKIEEACEIYARAANMFKMAKNWSAAGNAFCQAAQLHLQLQSKHDAATCFVDAGNAFKKADPQEAINCLMRAIEIYTDMGRFTIAAKHHISIAEIYETELVDIEKAIAHYEQSADYYKGEESNSSANKCLLKVAGYAALLEQYQKAIDIYEQVGTNAMDSPLLKYSAKDYFFKAALCHFCIDMLNAKLAVQKYEELFPAFSDSRECKLMKKLLEAHEEQNVDSYTESVKEYDSISRLDQWLTTMLLRIKKTIQGDEEDLR”, the protein production entry is given as “not failed”.

Turning to “MDNWQDITDDRLVRPIHPGEVIADILDDLDINTANFAEILGVSNQTIQEVINGQRSITVDIAIRLGKALGNGPRLWLNLQQKVDLWYALQSHKEEYEQVMTLV”, the protein production result is “not failed”.

With “MDPEEEAFDAIRRFARAENINAASVTAIGAFATATLAFFDLKTQDYQEIPVAEQSEVLTLLGDITLDENGVPNPHLHVVLGFADGSTRGGHFLKGLVRPTLEVVIRETPAELRRSYNREFGIALIDPAKLEHHHHHH”, the protein production result is “not failed”.

For “MDPFDAGQAQRGNGSTESSGREDREGEEAQWVGVLTHAVLAADDPANLGDSAPAEGGHDQMLEEWAAEEGQNPLEDRQEAVRRVNAWNQGELNLAMLRLTSLPPLPAGLHSLDASFNRLTSLPETLPDALNSLNVNGNQLVSLPALPAGLALLDVWSNRLTSLPETLPAALEGLNVGNNQLTSLPEALPARLESLDVSVNQLTSLPETLPASLGSLDVGVNQLTSLPETLPTSLGRLYLNDNQLTSLPTGLLTQLGAAAEVVVSGNPLPQEMLMNLDTIQSTDGYAGPRVVFDLSETHEDQWEDAAVAPFPLETVAAESLPEAVADWLNGDPKEGDPEVVAKWQSFAEEPGAQQYADFLNGLRNTVNSGNEGFQQGVANDLRQAAANPQLRAQYFQLALDANESCADRRTLTWNGMQTARLIANVENGLYDNNEGVAALVDLGRVMFRLEALGGIAREKVQSLRTGGTINNVDEIEVYLAYQATLRERLGLQHIAPDMNYFYDSHLTEEDIDRAETSVRSKEATGFADYLATDWKPWDDVVLRIEPEHHATMEEKLADALEEEFPGRLKQKLVEAGLIGAEADVVADAEREFGPQVSKDIAREIKGALRDTVLNKRGLSL”, the protein production entry is on record as “failed”.

As to “MDPLLVTVITTCGKVFQFHVDRRRNVGYLKKRISKEGKGFPEVDDQEILFKGEKLDDNRIIDGICKDGNSVIHLLVKKS”, the protein production result is recorded as “not failed”.

Take “MDPSSVIWIFFVFLFFYPQVLFRYRLLQRYKFIKQFEAVRKTRAIVMIHRQEQLALFGIPLYKYITIEDSEEILRAIRMTPEDMPIDLILHTPGGLVLASEQIAIALKEHKAKTTVIIPHYAMSGGSLIALAADEIIIDKNAVMGPVDPQIGQYPAASIINAINTKYTDELDDETLILGDIARKAIVQVKEFVYDILKDKMGEEKAKYLSETLSTGKWTHDYPLTINKLKDLGIEVNTELPNIVYELFDLYRQPVNQRPSVQYVPVPYKRGTK”: the protein production result is recorded as “failed”.

“MDQLSEKQIWYYHIIPEYQTEKSFYACVRRSGMIKFDTFYFPHMLSARETQRSIKFGDGVWSGCLYDPDIYTDGKISIQGVGGVLFPREAEIGGCVCLCLIFLIKLGLSTKYMKSHVSFDVSCDL”: the protein production entry was “failed”.

As to “MDQNAILLALGGIGAAALLSQWLAWRLRLPAILFLLLSGIVAGPLLGWLDPDEMFGPLLFPLVSLAVALILFEGSLTLHFSEWKEIGTVVHRMVTIGALSTWGVIALAAHYLLDFSWEMALLFGTLTLVTGPTVIVPMLRVVRPKAAVANILRWEGIVIDPIGALLAVVVYSFIISSGEGDGWLHSLQTFGGVILCGSLFGILGGWALGIVLRRHWLPDYLHNLATLAAVLGVFIASNRVMHESGLLAVTLMGMGLANMKGVDVRQILHFKENLSVLLISGLFILLAARLDINALLGLGPAALLVLLLIQFVARPLNVALSTWGSPLSWRERALLSWIAPRGIVAAAVSAIFAIRLSAEGHAQAALLVPLTFLVIIGTVVLQSATARPLARLLKVAEPSPSGYLIVGANPVGRAIGKALKSLGSRVLLTDSSWENIRAARMDNLPTYFGNPTSQHAEAHLDLVGIGHLLGVSPAGELNTLAAMRFRHEFGHRQLFGLPTSQEAKRTDKHRSSDEHRGRPLGQRPLTYAQFASLLSRGAEIRTTLLTDTFGWNDYQALHGESAILLFARDPNGRMHVATPQSTLAPGTGWTLLSLIDAEPSVSKSQATEIAD”, the protein production entry was “failed”.
